# Reference: the nanobody polyreactivity screen of Harvey et al. (2022)
# Assay: yeast display, Sf9 membrane polyspecificity reagent, FACS + sequencing; frameworks hold sequencing errors
# Summary of the method: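 Nanobodies came from a synthetic yeast display library in Saccharomyces cerevisiae BJ5465, induced with galactose for 36–48 hours and stained for 1 hour at 4 °C with 10% biotinylated, detergent-solubilized Sf9 membrane reagent. Cells were enriched on streptavidin microbeads and then FACS-sorted, with low and high (top ~1%) gates set on anti-HA fluorescence for expression and streptavidin fluorescence for reagent binding. Each polyreactivity label reflects the gate a clone came from. Genes were amplified by colony PCR, sequenced by MiSeq 2 × 250 and filtered by CDR length.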
row,Sequence,polyreactivity (PSR sort gate)
1,QVQLVESGGGLVQAGGSLRLSCAASGSTFGFYAMGWYRQAPGKERELVAAITGSGGSTYYADSVKGRFTISRDNAKNTVYLQMNSLKPEDTAVYYCNRYGVRYYRYDYWGQGTQVTVSS,high polyreactivity
2,QVQLVESGGGLVQAGGSLRLSCAASGSTFGFYAMGWYRQAPGTERELVAVISSGDSPYYADSVKGRFTISRDNAKNTVYLKMNSRKPEDTAVYYCAKDALVIDGGGGYDYWGQGTQVTVSS,low polyreactivity
3,QVQLVESGGGLVQAGGSLRLSCAASGSTFGFYAMGWYTHAPGKERELVAGITRVGSTNYADSVKGRFTISRDNAKNTVYLQMNSLKPEVTAVYYCNRRYTPYTWPYGYWGQGTQVTVSS,high polyreactivity
4,QVQLVESGGGLVQAGGSLRLSCAASGSTFGGYALGWDRQAPGKDRELVAAISRSGGRTYYADSVKGRFTISRDNAQNTVYLQMNSLKPEATAVYDCYPYYIASTFDYWGHGTQVTVSS,high polyreactivity
5,QVQLVESGGGLVQAGGSLRLSCAASGSTFGGYAMGRYRQAPGKERELVAAISNGDRTNYADSVKGRFTISRDNAKNTVYLQKNSLKPEETAVYYCATRTLFRYPNYGNNLWGYDYWGQGTQVTVSS,low polyreactivity
6,QVQLVESGGGLVQAGGSLRLSCAASGSTFGGYAMGWSRQAPGKERELVARITRSGGRTYYADSVKGRFTISRDNAKNTVYLQMNSLKPEDTAVYYCNKQLLISRQIQYEYWGQGTQVTVSS,low polyreactivity
7,QVQLVESGGGLVQAGGSLRLSCAASGSTFGGYAMGWYRQAPGKERELVAAINSGGSTYYADSVKGRFTISRDNAKNTVYLQMNSLKPEDTSVYYCNADSQVLRDYISDYWGQGTQVTVSS,low polyreactivity
8,QVQLVESGGGLVQAGGSLRLSCAASGSTFGGYAMGWYRQAPGKERELVAAITWSGDTYYADSVKGRFTISRDYAKNTVYLQMNSLKPEDTAVYYCAASYLGFHMSYDYWGQGTQVNVSS,high polyreactivity
9,QVQLVESGGGLVQAGGSLRLSCAASGSTFGGYVMGWYRQAPGKERELVAAISGNGASTTYADSVKGRFTISRDNAKNTFYLQMNSLIPEDTAVFYCAAMYRKAHSDYDYWGQGSQVTVSS,low polyreactivity
10,QVQLVESGGGLVQAGGSLRLSCAASGSTFGGYVMGWYRQAPGKERELVAAISGNGASTTYADSVKGRFTISRDNAKNTVYLQLNSLKPEDTAVYYCAALYRKAHSDYDYWGQVTQVTVSS,low polyreactivity
11,QVQLVESGGGLVQAGGSLRLSCAASGSTFGHNVMGWYRQAPGKERELVAVISWRGGSTSYADSVKGRFTISRDNAKNTVYLQMNSLKPEDTAVYYCAKPALRYSSRYDSWGQGTQVTVSS,high polyreactivity
12,QVQLVESGGGLVQAGGSLRLSCAASGSTFGINAMGWSRQAPGKERELVAAISWRGGSTYYADSVKGRFTISRDNSKNTVYLQMNSLKPEDTAVYYCAADTFYWVGHYYVETYDYWGQGTQVTVSS,high polyreactivity
13,QVQLVESGGGLVQAGGSLRLSCAASGSTFGINAMGWYRQAPGKERELVAAIDASGGTTYFADSVKGRFTISRDNAKNTVYLQMNSLKPEDTAVYYCAADDNYYTFGYWGQGTQVTVSS,high polyreactivity
14,QVQLVESGGGLVQAGGSLRLSCAASGSTFGINTMGWYRQAPGKERELVASINRGGTTNYADSVKGRFTISRDNAKNTVYLQMNSLKPEDTAVYYCNARYYVTRLSRFRYGYWGQGTQVTVSS,high polyreactivity
15,QVQLVESGGGLVQAGGSLRLSCAASGSTFGIYARGGYRQAPGNERELVAAISWRGGRTYYADSVKGRFTISRDNAKNTVYLQMNSLKPEDTAVYYCAADLAVYYIFLALEFNYWGQGTQVTVSS,low polyreactivity
16,QVQLVESGGGLVQAGGSLRLSCAASGSTFGKYAMGWYRQAPGKERELVAAITWSGASTFYADSVKGRFTISRDNAKNTVYLQMNSLKPEDTAVYYCAARSYKSYYIFDYWGQGTQVTVSS,low polyreactivity
17,QVQLVESGGGLVQAGGSLRLSCAASGSTFGLNAMGWYRQAPGKERELVAAITRSDITNYADSVKGRFTISRDNAKNTVYLQMNSLKPEDTAVYYCNKTPDRHRRYFGYGYWGHGTQVTVSS,low polyreactivity
18,QVQLVESGGGLVQAGGSLRLSCAASGSTFGLNAMGWYRQAPGKERELVAAITSGGTYYADSVKGRFTISRDNAKNTVYLQMNSLKPEDTAVYYCAADGTWSIYGGLYYWGQGTQVTVSS,low polyreactivity
19,QVQLVESGGGLVQAGGSLRLSCAASGSTFGLYAMGRYRQAPGKERELVAAIRYSDGSTYYADSVKGRFTISRDNAKNTVYLQMNSLKPEDTAVYYCAAEIGTYFHVPTEYDYWGQGTQVTVSS,low polyreactivity
20,QVQLVESGGGLVQAGGSLRLSCAASGSTFGLYAMGWYRQAPGKERELVAAIRWSGGRTYYADSVKGRFTISRDNAKNTVYLQMNSLKPEDTAVYYCAARSLRSKNDYWGQGTQVTVSS,high polyreactivity
21,QVQLVESGGGLVQAGGSLRLSCAASGSTFGLYAMGWYRQAPGKERELVAAISYSGSSTYYADSVKGRFTISRDNAKNTVYLQMNSLKPEATAVYYCAARRSEHGYNYWGQGTQVSVSS,high polyreactivity
22,QVQLVESGGGLVQAGGSLRLSCAASGSTFGNAMGWYRQAPGKERELVAAISGSGSDTYYADSVKGRFTISRDNAKNTVYLQMNSLKPEDTAVYYCNTGWDPYGYDYWGQGTQVTVSS,low polyreactivity
